Measurements taken from the supplement of paper PMC10126150.
± gives the standard deviation of the averaged measurements.

Tested on: ATP
Assay: switch fluorescence ratio, 500 uM ATP over buffer (Cy3 cluster intensity, sum of 5 cycles each) (fold (ratio)); higher = stronger signal-on switching upon ATP binding; sequences stand for … in TCGTCGGCAGCGTCAGATGTGTATAAGAGACAGTTTTTTTTTTTTTTTTTTTTTTTTT…TC
Details: aptamer strand: ATP DNA aptamer (quencher-CACCTGGGGGAGTATTGCGGAGGAAGG + anchor), 100 nM annealed; ATP concentration: 500 uM
Outline: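 Clusters with intensities outside 100-1000 RFU were excluded. The remaining Cy3-labelled switching-strand clusters on a modified Illumina MiSeq flow-cell had been annealed to 100 nM quencher-labelled ATP aptamer and imaged in selection buffer, then after 15 min with 500 uM ATP at 22 °C, for five cycles separated by NaOH stripping and re-annealing. The fluorescence ratio, averaged per switch-domain sequence, is each cluster's summed target-cycle Cy3 intensity over its summed buffer-cycle Cy3 intensity.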
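Also: ATP exposure 15 min at 22 °C before imaging.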

Row | Sequence | switch fluorescence ratio
1 | GTTTATGTGA | 1.03 ± 0.057
2 | GGTCGGGTAC | 0.9676 ± 0.0094
3 | GCAAACTCTG | 1.12 ± 0.15
4 | GCTAGTGTGG | 1.03 ± 0.015
5 | CGTGATAAAG | 0.9911 ± 0.0089
6 | CTGGTCGCT | 0.976 ± 0.017
7 | AGGAGGCATT | 1.02 ± 0.02
8 | AGGTTGCATG | 1.02 ± 0.079
9 | CTAAATGTTT | 1 ± 0.05
10 | TGCACTTTTA | 1.01 ± 0.02
11 | TTGGGCCCTG | 1.06 ± 0.014
12 | GGGAATGGGG | 0.992 ± 0.044
13 | CTTAGCGGGA | 1.02 ± 0.025
14 | TCAGAGCATC | 1.96 ± 1.1
15 | TGATGGTGGG | 0.979 ± 0.029
16 | CGGTCACGCG | 0.972 ± 0.039
17 | GTGGGTTCAG | 1 ± 0.018
18 | TTTGAGTCAG | 0.994 ± 0.035
19 | TAGGTAAAGA | 0.98 ± 0.021
20 | TTCCGGAAAA | 1.01 ± 0.05
21 | TAGTTATGGG | 0.998 ± 0.044
22 | AAGGGGTCTG | 0.979 ± 0.02
23 | TTCCCTAGTT | 1.004 ± 0.0029

Row | Sequence | switch fluorescence ratio
24 | TAAAGGTAGG | 1.01 ± 0.041
25 | GTAGGGGTCA | 0.976 ± 0.054
26 | CTTCACTACG | 1.12 ± 0.043
27 | TTAAGAGGC | 1.01 ± 0.2
28 | GCGACCCTT | 1.12 ± 0.037
29 | TTTGGGGGAC | 0.984 ± 0.05
30 | ATGGTGAATG | 0.978 ± 0.017
31 | TTTTCGAAAT | 1.01 ± 0.024
32 | CCGGGGATTG | 1.01 ± 0.027
33 | GGGCAAGGTC | 1.03 ± 0.034
34 | TTTTTTTAA | 0.991 ± 0.026
35 | TTTGAAGGAC | 0.992 ± 0.044
36 | TTTCATGGTG | 1.0484 ± 0.00021
37 | CTAACTGTTA | 0.99 ± 0.015
38 | ACCACGTGAC | 1.51 ± 0.035
39 | CGGCGTCCGT | 1.01 ± 0.037
40 | AAGGAGGATT | 1 ± 0.028
41 | GATGGTTATC | 0.961 ± 0.026
42 | CGAGGGGAGG | 1.05 ± 0.028
43 | CGAAGTTTCG | 1.02 ± 0.017
44 | TGAAGGGAAC | 1.06 ± 0.13
45 | GTGAAGAGGG | 0.9977 ± 0.0056
46 | ATGAGCAAGA | 1.49 ± 0.015

Row | Sequence | switch fluorescence ratio
47 | GGGACGGAAC | 1.12 ± 0.03
48 | GACGCGGAAC | 5.48 ± 0.37
49 | TTTGTATCAT | 1.017 ± 0.0076
50 | TTGACGTCGG | 0.985 ± 0.018
51 | TCGCAAAATT | 2.15 ± 1.3
52 | GATCCCGCGG | 1.049 ± 0.0088
53 | GGGCCATCGT | 0.993 ± 0.026
54 | CCACAAAATT | 1.1 ± 0.18
55 | ATAGGAGGGT | 0.989 ± 0.014
56 | AGAGAGACAG | 0.97 ± 0.057
57 | GAATTTAGCG | 1.01 ± 0.015
58 | TATTTCGGTG | 0.982 ± 0.027
59 | GTTTGGCCGG | 0.998 ± 0.03
60 | TACGGGTTCG | 0.99 ± 0.028
61 | AATTAAAAAT | 0.987 ± 0.017
62 | ATTCTTTACG | 1.03 ± 0.015
63 | CTAAAGAAAG | 0.989 ± 0.013
64 | AGAGTCATGG | 1 ± 0.013
65 | CCTACGTTT | 1.06 ± 0.063
66 | TATTTAGAGG | 1.01 ± 0.079
67 | TGCAGTAGTT | 1.012 ± 0.005
68 | TGTGACGGAC | 1.12 ± 0.015
69 | ATGTTATAGA | 0.986 ± 0.034

Row | Sequence | switch fluorescence ratio
70 | GCCGGAGCGG | 1.38 ± 0.062
71 | TTTGGAAGGG | 1 ± 0.026
72 | GGGAGGAGAC | 1.02 ± 0.053
73 | TTCATTACGT | 0.996 ± 0.029
74 | GGGTTAATCT | 0.9983 ± 0.0016
75 | GTTTTTTAGT | 0.988 ± 0.023
76 | GAGGAGGGAG | 0.998 ± 0.014
77 | ATAAGCGCAG | 1.008 ± 7e-05
78 | TGGGTGCGCA | 1.03 ± 0.025
79 | AGTCGTGTGT | 0.971 ± 0.046
80 | ATTGTGCGGG | 1.01 ± 0.036
81 | CATCTTTGAA | 1.05 ± 0.017
82 | TTTACGATGC | 1.05 ± 0.0062
83 | ATCGATGAGG | 0.991 ± 0.058
84 | GGGTTCATGG | 1.01 ± 0.047
85 | TAGCTAGGTG | 1.62 ± 0.05
86 | TTTGGAAATG | 1.0077 ± 0.00015
87 | GAGATTTATT | 0.985 ± 0.057
88 | CAGGGCTGGT | 0.976 ± 0.015
89 | TTAAGCATTT | 1.021 ± 0.0047
90 | TGGAAGGGTA | 0.9903 ± 0.0012
91 | GGCGTTTGGG | 0.991 ± 0.033
92 | TAATGGGGGC | 0.994 ± 0.018

Row | Sequence | switch fluorescence ratio
93 | ACCGGCGAGG | 1.01 ± 0.036
94 | ACTAGAAGAT | 0.9829 ± 0.0038
95 | GGCCCTAAGT | 0.976 ± 0.026
96 | GCGTACTCAA | 1.11 ± 0.043
97 | TTGTTAGGTG | 1.132 ± 0.0016
98 | ATGCGTGAGG | 1.011 ± 0.0037
99 | ACTATATTTG | 1.04 ± 0.022
100 | AAGTTGGGTT | 0.9633 ± 0.0079
101 | CTAGCATGAT | 1.03 ± 0.061
102 | GAGAAACCGG | 1.03 ± 0.019
103 | CTTTGGGTTT | 0.981 ± 0.058
104 | ATGAATGTTA | 1.006 ± 0.0075
105 | TTTTTTCGGA | 1.01 ± 0.073
106 | CCTGGCTTGA | 0.996 ± 0.016
107 | CGATGGCCCT | 1.03 ± 0.011
108 | GACTTTGGAG | 1 ± 0.027
109 | TTTTTGCGCG | 0.9974 ± 0.0065
110 | AGATTGTACG | 1.006 ± 0.0017
111 | CTATTGGTTA | 1.01 ± 0.011
112 | CAAATGGGCT | 0.975 ± 0.044
113 | AGTTTGAAGG | 0.9894 ± 0.0073
114 | TCGCGACTTG | 0.9946 ± 0.0054
115 | TAATCGGTG | 0.9805 ± 0.0024

Row | Sequence | switch fluorescence ratio
116 | TAATGTGGGT | 0.967 ± 0.015
117 | AGTGCTGTTC | 0.929 ± 0.082
118 | GGGACCGTGT | 1.01 ± 0.028
119 | CGTCGTAAAA | 0.999 ± 0.036
120 | TTGTATAGGG | 1 ± 0.025
121 | GCCTGAGAGC | 0.9754 ± 0.0021
122 | AAGAGGCGGA | 1 ± 0.026
123 | GTTAGCTTGC | 0.996 ± 0.029
124 | CGGAGGGAGT | 1.78 ± 1.1
125 | GTTCGTATTT | 0.997 ± 0.021
126 | GATAAAGTAA | 0.983 ± 0.015
127 | TCTTGGGACG | 0.979 ± 0.042
128 | GCTTCGGGCC | 0.991 ± 0.015
129 | GATACGCGGG | 0.9947 ± 0.0057
130 | TGTAAGGATG | 0.996 ± 0.013
131 | GGGGTTCCGG | 0.941 ± 0.032
132 | AACAATTGGG | 0.978 ± 0.0039
133 | ATGGGGGACA | 0.981 ± 0.012
134 | AAATGTTCCG | 1.03 ± 0.011
135 | CGCAGGCTTG | 1.04 ± 0.043
136 | TTGTAGAGGG | 1.01 ± 0.029
137 | GGTTTTAAGT | 1.01 ± 0.04
138 | AACCTTTTTT | 1.03 ± 0.0037

Row | Sequence | switch fluorescence ratio
139 | GAACCGTGTT | 0.967 ± 0.036
140 | TGGGTGCATT | 1.014 ± 0.0044
141 | TTGTTTTGCT | 0.999 ± 0.073
142 | GCGATGTCT | 0.9976 ± 0.0065
143 | GTGTATATGG | 0.995 ± 0.017
144 | TTTATAGGCT | 1.01 ± 0.047
145 | ATTGAACAT | 0.984 ± 0.015
146 | AGGGTCAGGT | 1 ± 0.013
147 | TCGTGGATGT | 1 ± 0.028
148 | AGGCGCCTGG | 0.964 ± 0.04
149 | AGCCAGCTGC | 0.9924 ± 0.0095
150 | GCAATAATCG | 1.98 ± 1.4
151 | AGTTTATGTG | 0.9746 ± 0.0073
152 | GAGAATCGGA | 0.965 ± 0.012
153 | ATAAGACTGG | 0.9819 ± 0.0053
154 | GCATTATCCA | 1.01 ± 0.031
155 | TTTGTTTCCA | 0.962 ± 0.012
156 | TACGATTTAA | 1.01 ± 0.026
157 | TGCATGATTG | 0.967 ± 0.02
